Laboratory results published in EP4725969A1 (Latticon (Suzhou) Biopharmaceuticals Co., Ltd., dated 2024).
Each block holds one binder with its values, some of them ahead of it.

Tests used:
[1] = target: T1, recombinant human HER2 extracellular domain protein (human, UniProt P04626 23-652); experiment: BLI (ForteBio)
T1 construct: range 23-652; Range is printed for the immunogen/panning protein; also called ErbB2; recombinant HER2 protein

[2] = target: T1, recombinant human HER2 extracellular …; experiment: BLI, Protein A capture
[3] = target: T2, human HER2 expressed on tumor cells (human, UniProt P04626 23-1255); experiment: flow cytometry, BT474 cells
T2 construct: whole, on cells; Cell line is named in each row's assay

[4] = target: T2, human HER2 expressed on tumor cells; experiment: flow cytometry, RT-112 cells
[5] = target: T1, recombinant human HER2 extracellular …; experiment: BLI, Protein A capture; remark: listed apart in the source
[6] = target: T1, recombinant human HER2 extracellular …; experiment: BLI, Protein A capture; remark: listed apart in the source
[7] = target: T1, recombinant human HER2 extracellular …; experiment: BLI, Protein A capture; remark: listed apart in the source

B1: Mu2117KH (Fc fusion)
scFv: DVVLTQTPLSLPVSLGDQASISCRSSQSLVHSNGNTYLHWYLQKPGQSPKLLIYKVSNRFSGVPDRFSGSGSGTDFTLKISRVEAEDLGVYFCSQSTHVPYTFGGGTKLEIKGGGGSGGGGSGGGGSEVKIEESGGGLVKPGGSLKLSCAASGFTYSSYGMSWVRQTPEKRLEWVASISGGGSYTKYPDSVKGRFTISRDNAKNHLYLQMSSLRSEDTALYYCARDYAGFFDVWGAGTTVTVSS
notes: scFv-hIgG1 Fc fusion of mAb2117 V regions, VL-(G4S)3-VH; also called chimeric single-chain antibody control; not shown: human IgG1 Fc
Kd [1]: 77.2 nM
koff [1]: 0.00545 s⁻¹
kon [1]: 70600 M⁻¹ s⁻¹

B2: Hu2117HK (Fc fusion)
scFv: EVQLVESGGGLVQPGGSLRLSCAASGFTYSSYGMSWVRQAPGKGLEWVASISGGGSYTKYPDSVKGRFTISRDNSKNTLYLQMNSLRAEDTAVYYCARDYAGFFDVWGQGTLVTVSSGGGGSGGGGSGGGGSDIQMTQSPSSLSASVGDRVTITCRSSQSLVHSNGNTYLHWYQQKPGKAPKLLIYKVSNRFSGVPSRFSGSGSGTDFTLTISSLQPEDFATYFCSQSTHVPYTFGQGTKVEIK
notes: Hu2117-H1 + Hu2117-K1; also called hu2117-H1K1; humanized single-chain antibody Hu2117HK; not shown: human IgG1 Fc
Kd [1]: 178 nM
koff [1]: 0.00296 s⁻¹
kon [1]: 16600 M⁻¹ s⁻¹
Kd [2]: 11.4 nM
koff [2]: 0.00105 s⁻¹
kon [2]: 91700 M⁻¹ s⁻¹
EC50 [3]: 0.107 µg/mL
EC50 [4]: 0.0593 µg/mL

B3: Hu2117-HK310 (Fc fusion)
scFv: EVQLVESGGGLVQPGGSLRLSCAASGFTYSSYGMSWVRQAPGKGLEWVASISGGGNYAKYVDNVKGRFTISRDNSKNTLYLQMNSLRAEDTAVYYCARDYVGFFDVWGQGTLVTVSSGGGGSGGGGSGGGGSDIQMTQSPSSLSASVGDRVTITCRSSQSLVHSNRNTYLHWYQQKPGKAPKLLIYKVSNRFSGVPSRFSGSGSGTDFTLTISSLQPEDFATYFCSQSTHVPYTFGQGTKVEIK
notes: scFv-hIgG1 Fc; not shown: human IgG1 Fc
EC50 [3]: 0.103 µg/mL
EC50 [4]: 0.157 µg/mL

B6: Hu2117-HK304 (Fc fusion)
scFv: EVQLVESGGGLVQPGGSLRLSCAASGFTYSSYGMSWVRQAPGKGLEWVASISGGGNYAKYVPSVKGRFTISRDNSKNTLYLQMNSLRAEDTAVYYCARDYVGFFDVWGQGTLVTVSSGGGGSGGGGSGGGGSDIQMTQSPSSLSASVGDRVTITCRSSQSLVHSNRNTYLHWYQQKPGKAPKLLIYKVSNRFSGVPSRFSGSGSGTDFTLTISSLQPEDFATYFCSQSTHVPYTFGQGTKVEIK
notes: as for B3
EC50 [3]: 0.0922 µg/mL
EC50 [4]: 0.0622 µg/mL

B8: Hu2126-H1K1 (antibody, human IgG1, V domains shown)
VH: QVQLQESGPGLVKPSETLSLTCTASGYTFTDYSMHWVRQPPGKGLEWMGWINTETGEPTYADDFKGRFTFSLDTSKNQASLKLSSVTAADTAVYFCVRVGRYDYAMDYWGQGTTVTVSS
VL: DIQMTQSPSSLSASVGDRVTITCKASQDVYTAVAWYQQKPGKAPKLLINSASYRYTGVPSRFSGSGSGTDFTLTISSLQPEDFATYYCQQHYSTPPTFGGGTKVEIK
Kd [5]: 19.1 nM
koff [5]: 0.0018 s⁻¹
kon [5]: 94500 M⁻¹ s⁻¹

B9: Hu2126-H2K1 (antibody, human IgG1, V domains shown)
VH: QVQLVQSGSELKKPGASVKVSCKASGYTFTDYSMHWVRQAPGQGLEWMGWINTETGEPTYADDFKGRFVFSLDTSVSTAYLQISSLKAEDTAVYFCVRVGRYDYAMDYWGQGTTVTVSS
VL: DIQMTQSPSSLSASVGDRVTITCKASQDVYTAVAWYQQKPGKAPKLLINSASYRYTGVPSRFSGSGSGTDFTLTISSLQPEDFATYYCQQHYSTPPTFGGGTKVEIK
Kd [5]: 6.89 nM
koff [5]: 0.000581 s⁻¹
kon [5]: 84300 M⁻¹ s⁻¹
Kd [6]: 4.71 nM
koff [6]: 0.000469 s⁻¹
kon [6]: 99600 M⁻¹ s⁻¹

B11: Hu2126-H2K1-L71-H72b-Mu16 (antibody, IgG1, V domains shown)
VH: QVQLVQSGSELKKPGASVKVSCKASGYTFTDYSMHWVRQAPGQGLEWMGWINTGTGEPTYADDFKGRFTISRDTSKSTAYLQISSLKAEDTAVYYCVRVGRYDYAMDYWGQGTTVTVSS
VL: DIQMTQSPSSLSASVGDRVTITCRASQDVYTAVAWYQQKPGKAPKLLINRASSRPTGVPSRFSGSGSGTDFTLTISSLQPEDFATYYCQQYYSTPPTFGGGTKVEIK
notes: IgG1/Cκ; also called 7172b-Mu16
Kd [7]: 5.77 nM
koff [7]: 0.000578 s⁻¹
kon [7]: 100000 M⁻¹ s⁻¹

B12: Hu2126-H2K1-L71-H72b-Mu18 (antibody, IgG1, V domains shown)
VH: QVQLVQSGSELKKPGASVKVSCKASGYTFTDYSMHWVRQAPGQGLEWMGWINTGTGEPTYADDFKGRFTISRDTSKSTAYLQISSLKAEDTAVYYCVRVGRYDYAMDYWGQGTTVTVSS
VL: DIQMTQSPSSLSASVGDRVTITCRASQDVYTAVAWYQQKPGKAPKLLINWASSRPTGVPSRFSGSGSGTDFTLTISSLQPEDFATYYCQQYYSTPPTFGGGTKVEIK
notes: IgG1/Cκ; also called 7172b-Mu18
Kd [7]: 7.96 nM
kon [7]: 124000 M⁻¹ s⁻¹

B13: Hu2126-H2K1-L71-H72b-Mu19 (antibody, IgG1, V domains shown)
VH: QVQLVQSGSELKKPGASVKVSCKASGYTFTDYSMHWVRQAPGQGLEWMGWINTGTGEPTYADDFKGRFTISRDTSKSTAYLQISSLKAEDTAVYYCVRVGRYDYAMDYWGQGTTVTVSS
VL: DIQMTQSPSSLSASVGDRVTITCRASQDVYTAVAWYQQKPGKAPKLLINYASSRPTGVPSRFSGSGSGTDFTLTISSLQPEDFATYYCQQYYSTPPTFGGGTKVEIK
notes: IgG1/Cκ; also called 7172b-Mu19
Kd [7]: 2.9 nM
koff [7]: 0.000314 s⁻¹
kon [7]: 108000 M⁻¹ s⁻¹

B14: Hu2117KH (Fc fusion)
scFv: DIQMTQSPSSLSASVGDRVTITCRSSQSLVHSNGNTYLHWYQQKPGKAPKLLIYKVSNRFSGVPSRFSGSGSGTDFTLTISSLQPEDFATYFCSQSTHVPYTFGQGTKVEIKGGGGSGGGGSGGGGSEVQLVESGGGLVQPGGSLRLSCAASGFTYSSYGMSWVRQAPGKGLEWVASISGGGSYTKYPDSVKGRFTISRDNSKNTLYLQMNSLRAEDTAVYYCARDYAGFFDVWGQGTLVTVSS
notes: not shown: human IgG1 Fc
Kd [1]: 147 nM
koff [1]: 0.00381 s⁻¹
kon [1]: 25900 M⁻¹ s⁻¹

The remaining lines, values ahead:

EC50 [3]: 0.103 µg/mL
EC50 [4]: 0.0956 µg/mL
B4: Hu2117-HK309 (Fc fusion)
scFv: EVQLVESGGGLVQPGGSLRLSCAASGFTYSSYGMSWVRQAPGKGLEWVASISGGGNYAKYVDKVKGRFTISRDNSKNTLYLQMNSLRAEDTAVYYCARDYVGFFDVWGQGTLVTVSSGGGGSGGGGSGGGGSDIQMTQSPSSLSASVGDRVTITCRSSQSLVHSNRNTYLHWYQQKPGKAPKLLIYKVSNRFSGVPSRFSGSGSGTDFTLTISSLQPEDFATYFCSQSTHVPYTFGQGTKVEIK
notes: as for B3

EC50 [3]: 0.102 µg/mL
EC50 [4]: 0.144 µg/mL
B5: Hu2117-HK203 (Fc fusion)
scFv: EVQLVESGGGLVQPGGSLRLSCAASGFTYSSYGMSWVRQAPGKGLEWVASISGGGNYAKYVDSVKGRFTISRDNSKNTLYLQMNSLRAEDTAVYYCARDYVGFFDVWGQGTLVTVSSGGGGSGGGGSGGGGSDIQMTQSPSSLSASVGDRVTITCRSSQSLVHSNRNTYLHWYQQKPGKAPKLLIYKVSNRFSGVPSRFSGSGSGTDFTLTISSLQPEDFATYFCSQSTHVPYTFGQGTKVEIK
notes: as for B3

EC50 [3]: 0.101 µg/mL
EC50 [4]: 0.129 µg/mL
B7: Hu2117-HK303 (Fc fusion)
scFv: EVQLVESGGGLVQPGGSLRLSCAASGFTYSSYGMSWVRQAPGKGLEWVASISGGGNYAKYVESVKGRFTISRDNSKNTLYLQMNSLRAEDTAVYYCARDYVGFFDVWGQGTLVTVSSGGGGSGGGGSGGGGSDIQMTQSPSSLSASVGDRVTITCRSSQSLVHSNRNTYLHWYQQKPGKAPKLLIYKVSNRFSGVPSRFSGSGSGTDFTLTISSLQPEDFATYFCSQSTHVPYTFGQGTKVEIK
notes: as for B3

Kd [7]: 2.8 nM
koff [7]: 0.000276 s⁻¹
kon [7]: 98500 M⁻¹ s⁻¹
B10: Hu2126-H2K1-L71-H72b-Mu17 (antibody, IgG1, V domains shown)
VH: QVQLVQSGSELKKPGASVKVSCKASGYTFTDYSMHWVRQAPGQGLEWMGWINTGTGEPTYADDFKGRFTISRDTSKSTAYLQISSLKAEDTAVYYCVRVGRYDYAMDYWGQGTTVTVSS
VL: DIQMTQSPSSLSASVGDRVTITCRASQDVYTAVAWYQQKPGKAPKLLINSASSRPTGVPSRFSGSGSGTDFTLTISSLQPEDFATYYCQQYYSTPPTFGGGTKVEIK
notes: IgG1/Cκ; also called 7172b-Mu17

Kd [1]: 76 nM
koff [1]: 0.00523 s⁻¹
kon [1]: 68800 M⁻¹ s⁻¹
B15: Mu2117HK (Fc fusion)
scFv: EVKIEESGGGLVKPGGSLKLSCAASGFTYSSYGMSWVRQTPEKRLEWVASISGGGSYTKYPDSVKGRFTISRDNAKNHLYLQMSSLRSEDTALYYCARDYAGFFDVWGAGTTVTVSSGGGGSGGGGSGGGGSDVVLTQTPLSLPVSLGDQASISCRSSQSLVHSNGNTYLHWYLQKPGQSPKLLIYKVSNRFSGVPDRFSGSGSGTDFTLKISRVEAEDLGVYFCSQSTHVPYTFGGGTKLEIK
notes: scFv-hIgG1 Fc fusion of mAb2117 V regions, VH-(G4S)3-VL; also called chimeric single-chain antibody control; not shown: human IgG1 Fc
